How the values were obtained:
[1] = tested on: G5DE5tkLuc reporter in S2 cells; test: Effect of Trichostatin-A on Gal4-tethered repression; format: cell-based, Drosophila; conditions: TSA 100 nM and 400 nM, 24 h before harvest
Protocol: (§1) Drosophila S2 cells were grown in Schneider's medium (Sigma) at 27° C. containing 10% FBS and penicillin/streptomycin. Cells were transfected using the Superfect reagent (Qiagen) following the manufacturer's directions. Transfection assays included 1.5 μg of either the pG5DE5tkLuc reporter or the p-37tkRLuc internal control, essentially as described in Chen et al. (1998) Mol Cell Biol 18:7259-7268. The Gal4 DNA binding domain constructs, pACTIN-SV-Gal4-Gro, pACTIN-SV-Gal4-MBD and pACTIN-SV-Gal4-MBDΔ were constructed by insertion of the Gal4 DBD into the HindIII/PstI sites of pACTIN-SV followed by insertion of Gro, dMBD-like and dMBD-likeΔ into the EcoRI site of the resulting plasmid. Quantities of individual Gal4 plasmids were varied as described in the figure legends. The total amount of plasmid was normalized to 4 μg by addition of pACTIN-SV vector (Huynh et al. (1999) J. Mol Biol 288:13-20) as carrier. Cells were harvested 12 h after transfection and luciferase assays were performed using an Enhanced Luciferase Assay Kit (Pharmingen) according to the manufacturer's instructions. Where indicated, transfected cells were treated with Trichostatin A (TSA, Wako) for 24 h before harvest. If dMBD-like represses transcription through recruitment of a Drosophila Mi-2 complex, transcriptional repression should be sensitive to inhibitors of histone deacetylases. Accordingly, the effect of Trichostatin-A, a histone deacetylase inhibitor, on dMBD-like-mediated repression was tested.

[2] = tested on: G5DE5tkLuc reporter in S2 cells; test: Cotransfection transcription assay, Gal4-tethered repression of luciferase reporter; format: cell-based, Drosophila; conditions: transfection into S2 cells; protein not tethered
Protocol: as §1, with “If dMBD-like represses transcription through recruitment of a Drosophila Mi-2 complex, transcriptional repression should be sensitive to inhibitors of histone deacetylases. Accordingly, the effect of Trichostatin-A, a histone deacetylase inhibitor, on dMBD-like-mediated repression was tested.” left out

[3] = tested on: methylated (GAM12) and unmethylated (GAC12) DNA probes; test: Gel mobility-shift assay (solution binding); conditions: GAC12 or GAM12 probe; 50, 75, 150 ng protein
Protocol: (§2) Gel mobility shifts were performed in 10% polyacrylamide gels run in 0.5×TBE buffer (45 mM Tris, pH 8.0, 45 mM boric acid, 1 mM EDTA) using GAC12 or GAM12 double-stranded oligonucleotide probes, essentially as described in Wade et al. (1999) Nature Genet. 23:62-66. One picomole of radiolabelled probe was mixed with purified recombinant protein as indicated in the figure legends in 10 mM Tris HCl pH 8.0, 3 mM MgCl2, 50 mM NaCl, 0.1 mM EDTA, 0.1% NP-40, 2 mM DTT, 5% glycerol and 0.4 mg/ml BSA. The samples were incubated for 30 min at 37° C. 30 pmoles of competitor DNA (GAC12 or GAM12) were used per binding reaction. Gels were scanned on a Phosphormager (Molecular Dynamics). The procedure used for southwestern assays is as described in Wade et al. (1999), supra.
Solution interactions with DNA were also examined using an electrophoretic mobility shift assay (FIG. 1D). […] No interaction was detected under these conditions, even non-specific aggregation.

[4] = tested on: methylated (GAM12) and unmethylated (GAC12) DNA probes; test: Southwestern assay with immobilized recombinant protein; format: binding
Protocol: as §2
In Southwestern assays using immobilized protein, neither isoform interacted with the probes, regardless of methylation status (FIG. 1C). Thus, either the proteins fail to bind or they are unable to refold on the membrane surface.

| Molecule | relief of repression by Gal4-Gro [1] | relief of repression mediated by tethered dMBD-like [1] | relief of repression mediated by tethered dMBD-likeΔ [1] | transcriptional repression lacking the Gal4 DBD [2] | binding to DNA in solution (electrophoretic mobility shift) [3] | binding of immobilized protein to DNA probes (Southwestern) [4] |
| --- | --- | --- | --- | --- | --- | --- |
| CC(/C=C/C(=O)NO)=C\[C@@H](C)C(=O)c1ccc(N(C)C)cc1 [Trichostatin-A] | relieves repression | largely relieved | largely relieved |  |  |  |
| dMBD-like: Drosophila methyl CpG binding domain protein homolog, product of the 1115 base mRNA (SEQ ID NO:14) (protein) MQMNPSVTIERKRVDCSVLPKGWQRDEVRKSGSSANNNASSNNNSSATASSNNNNNKVDVFYYSPTGKRAEGKPQDIAIPDFQPGKMPHCALPSPSISLYRCSAMPLPIASGGGNGATSGSAANALKRKFARSQGGNAAGAAGAAPPAATASSAATATAASASPSTANRQQQQIELSRALRTDVSLVPPIRQTASIFKQPVTVIRNHKQDPAKAKNEPKHGTREKPKQLFWEKRLERLRACHDSGEELDDISLPKTIRTVGPNVNEQTVLQSVATALHMLNAGVHGQSSTKADLTKNAMAFMNPEQPLMHAVIISEDDIRKQEDRVGVARRKLQDALKT |  |  |  | failed to repress transcription | fails to bind methylated DNA in solution | fails to bind methylated DNA |
| dMBD-likeΔ: shorter Drosophila MBD-like isoform, product of the 842 base mRNA (SEQ ID NO:15) (protein) MQMNPSVTIERKRVDCSVLPKGWQRDEVRKSGSSANNNASSNNNSSATASSNNNNNKVDVFYYSRALRTDVSLVPPIRQTASIFKQPVTVIRNHKQDPAKAKNEPKHGTREKPKQLFWEKRLERLRACHDSGEELDDISLPKTIRTVGPNVNEQTVLQSVATALHMLNAGVHGQSSTKADLTKNAMAFMNPEQPLMHAVIISEDDIRKQEDRVGVARRKLQDALKT |  |  |  | failed to repress transcription |  |  |

— patent publication US6919204B2, “Modulation of gene expression using localization domains” (Sangamo Biosciences, Inc., priority 2000, dated 2005)
